Assay results: the DeepSol protein solubility set

test: soluble on expression in E. coli; label from the status in PepcDB or PDB records

Sequence	soluble on expression in E. coli
MENFEIWVEKYRPRTLDEVVGQDEVIQRLKGYVERKNIPHLLFSGPPGTGKTATAIALARDLFGENWRDNFIEMNASDERGIDVVRHKIKEFARTAPIGGAPFKIIFLDEADALTADAQAALRRTMEMYSKSCRFILSCNYVSRIIEPIQSRCAVFRFKPVPKEAMKKRLLEICEKEGVKITEDGLEALIYISGGDFRKAINALQGAAAIGEVVDADTIYQITATARPEEMTELIQTALKGNFMEARELLDRLMVEYGMSGEDIVAQLFREIISMPIKDSLKVQLIDKLGEVDFRLTEGANERIQLDAYLAYLSTLAKK	soluble
MKSKFFAQNRERLVNTLPDESITILFAGQAPHMSADAHYKFVPNRNFYYVTGIDEPNVIFMLKKFGNSVEETLFIEKSDPVMEKWVGKTVSNEEAEKISGIKKVIYLDSFEKTMSNIFFTENVKHLYLDLECREWKGTETKTLAFAKHVREQYPHVTIGNVYPNICELRVFKTDEEIEIIKEAIAVTKDGIYNVLKHAKADMMEYELEAQFDFTLKSSGIKHHAFNTILASGKNATVLHYEDNDAQIQNGDLVLLDLGAQKDYYNADISYTFPANGTFSSRQKQIYNIVLNALKETTEIIKPGLKFAALNEHAKKVLAEGCKAVGLIQEDEELSKYYYHGVSHFLGLDTHDVGTYKDRVLEEGMVITIEPGLYIEEESIGIRIEDDILVTKDGHENLSKDIIREVEEIEEFMRENNVNVKQDEVVTK	soluble
MERVYRTDLKLLRYFLAVAEELHFGRAAARLNMSQPPLSIHIKELENQLGTQLFIRHSRSVVLTHAGKILMEESRRLLVNANNVLARIEQIGRGEAGRIELGVVGTAMWGRMRPVMRRFLRENPNVDVLFREKMPAMQMALLERRELDAGIWRMATEPPTGFTSLRLHESAFLVAMPEEHHLSSFSTVPLEALRDEYFVTMPPVYTDWDFLQRVCQQVGFSPVVIREVNEPQTVLAMVSMGIGITLIADSYAQMNWPGVIFRPLKQRIPADLYIVYETQQVTPAMVKLLAALTQ	soluble
MRTITFNELRKIKDSLPSGSMHRIADELGLHVDTVRNFFGGHNFKEGKSVGIHLEPGPDGGLVMLDDTTVLDRALKILDEINMSMQKEQATEPMQI	not soluble
MGSDKIHHHHHHEKAVTHSESKEFKPETVKIGEDGELNIVPLYAPYQTYLKASLKADTSETDSKNYAEYVLRYIDKIGEKENFDPTTLETFFMLKATAYEQDMLNQTNELMKQHDEIKDIITKNYSASYEALPKKKATIFIAPSNLEFWSMTDPLAGVSGAAFQDSIIIQLNPNFDKEVLAYTIAHEYHHLVLNDTPELSRIDTSLDSVIFEGKADAFADQIVTDVSPPWNIPMDDTTKKHVARLIGNGEADYQEITMGNTEKDIPLWSRYSLGRDILTHHLKANPDLSIKTWTYEENHAILNGYKYQKLLE	not soluble
MSDVATLESFRLADSFLPVGTYTVSYGLEQFIQDDRVEDATDLEGLLSTYLRRQIGPAELVALRAAHAAATDGDIEAICHADQRLSAVTLAAEFRESAQQSGDRLLSLQTELRDEALLNRYAERVDADDAPGNYAVVLGVATGLADVAVREACLLCCHGFVTGLLGAAQRLLSLGHTDAQRILNDLQPVMTAAVDDSADRGIDEMTPFAPLVDVLAAEHERAERRLFASLEHHHHHH	not soluble
REVADTAYDRTLLASARAIADGLYEKDGTLRADVPYVALDTFAYDSAGRIFYQVNDIHGRMISGYENLPAAPADTLRTDDYPALAKFYDGVYQGVDVRVVSLLQPVSEPSMSGMAEIRVAETEGARERMARS	not soluble
MSLNKEQRRITAEELQAHFEESTLSVQMIAEKLNVTTEDVEKVLAMTAPLGIFSHQLQRFIHLVWDVRDVINDNIKGNGQTPEPYTYLKGEKEDYWFLR	not soluble
MKYDTSELCDIYQEDVNVVEPLFSNFGGRSSFGGQIITVKCFEDNGLLYDLLEQNGRGRVLLVDGGGSVRRALVDAELARLATQNEWEGLVIYGAVRQVDDLEELDIGIQAIAAIPVGAAGEGIGESDVRVNFGGVTFFSGDHLYADNTGIILSEDPLDIE	not soluble
MAHHHHHHMEVFNFGKYNGKTFEEVFEKHKSYVTWVKSLESPSGSLLDFKNYVLQKEGKKNSSNMANNNHYNNEKNSNNNYSNNMYENNVRSPNIYNEQYTNNNKMKENYDRNANMNNNEICTNNNRINENNVKSPHYYNNEKNINNYSHECNRSKIAYKHNYSENRNSYNNFEKSSVDTNYTNEEKKKFHNMNSSEYRNYEEKVMSDINNAYNQPEEKKEFDIIVAFEIFSDDSFKIVQKDNNNKKFVSFRNFISKDLFKIISELNPTLKKINNYTCITFEAEKYEYVLNNLKEKCTILGGVHTIPNFLLKCFKNYTKFSEPQRISEITANILTNTMCSYTKQHYDKLDHLLGEKLSVELRNFQREGVFFGLKKNGRVLIGDEMGLGKTLQALALMAFYKDDWPFIVVCPSSIRFQWKDQALRWLSHLIREEHICVVKNGKTDIPSNTKMIIISYELITKNDKYQDKYKSIICDESHYLKNSLSKRTKVITPIIKNAKRCVLLSGTPALNKPSELYEQISSIMPNFFNYHEFCDRYCFKDKNLYTKKIEYVGCKHTEELHLFLTNTIMIRRLKKDVLKELPDKLRSKIPVEIPQKELSEILNYYKKLESKKNINFHDIDNIHLSNWSNSKSEDGDDENLSISHLFKITGYAKVKAIKEYISYLIDADIKFLLFCHHKLVMDEVETFLKEQKCSYIRVDGLTPMEKREIYIKNFQNDDNVKIALLSITACGMGLNLTAANTVVFGELFWVPGQIIQAEDRAHRIGTAHDVVNIHYLIAQNTIDEIVWKIINRKWNTLTTALNGIEDSLNVKEVNKFDKFMVDLTNDTNKSYPTSLVTTPKVRRKSSEHGTFHNSSPKKKNRDIRDFFTANKCNESVEKSWNNNINKRSYHDSPMNDSPNTTLKFLSKKYKTEIN	not soluble
MRETRMVYPVFPGETNHYGTLFGGTVLAWMDQAAFVAATRHARKKVVTVHADAVDFKRPVPLGAIVELVARLKEVGRTSMRVEVEMWVEPVKEGEEAYLAARGGFVLVAVDERGRPSPVPPLEGGEAHAPHGP	soluble
MFDSIRETIDYAVENNMSFADIMVKEEMELSGKSRDEVRAQMKQNLDVMRDAVIKGTTGDGVESVTGYTGHDAAKLRDYNETHHALSGYEMIDAVKGAIATNEVNAAMGIICATPTAGSSGTIPGALFKLEKTHDLTEEQMIDFLFTSALFGRVVANNASVAGATGGCQAEVGSASAMAAAAAVAIFGGSPEASGHAMALAISNLLGLVCDPVAGLVEIPCVMRNAIGSGNALISADLALAGIESRIPVDEVIEAMDKVGRNLPASLRETGLGGLAGTPTGEAIKRKIFGTAEDMVKNN	not soluble
MSLATKFPKNFKLATATAAYQIEGAKDLNGRGFSTWDAIRLEPGRILDNSDPDLSCDGLLKYKEDVALLAEIGVTNYRFSISWSRILPDGTLSTINEEGIKFYRDLCLLLKENNIEPVVTLFHFDMPLAIYDNGTAWLNRENCEHFEKFADLCFQKFGDLVKTWITYNEINCQAWGSIVKVEGEFWLCPERPEIENHKQAPYFGAANMLLTHAKIYRNYDQNYKPTQHGILGITNGGRFCFPATDSQEDIEACNRARDWLFNFTIEPILSGSGDFPVLMRERMPFIPKFSEEEKEIIKGSTDFIGINYYLSFLVRAPKDGEKASSQSQHDGGYVFVEGKWDKICGETWIRYAPDGLLKILRYVKEKYANTPVFITENGCMDIVGQDQEDAFHDQHRIDYISGHLEAVAKALDEGCNVIGYTVWTLMDNFEWDDGFELKFGLCEVDFESPDKTRTMKKSAYFYKEFIKEFKDFHGI	not soluble
MKRLQAFKFQLRPGGQQECEMRRFAGACRFVFNRALARQNENHEAGNKYIPYGKMASWLVEWKNATETQWLKDSPSQPLQQSLKDLERAYKNFFRKRAAFPRFKKRGQNDAFRYPQGVKLDQENSRIFLPKLGWMRYRNSRQVTGVVKNVTVSQSCGKWYISIQTESEVSTPVHPSASMVGLDAGVAKLATLSDGTVFEPVNSFQKNQKKLARLQRQLSRKVKFSNNWQKQKRKIQRLHSCIANIRRDYLHKVTTAVSKNHAMIVIEDLKVSNMSKSAAGTVSQPGRNVRAKSGLNRSILDQGWYEMRRQLAYKQLWRGGQVLAVPPAYTSQRCAYCGHTAKENRLSQSKFRCQVCGYTANADVNGARNILAAGHAVLACGEMVQSGRPLKQEPTEMIQATALEHHHHHH	not soluble
GPGSMGCGDSKVRQGGPSRPPPPRGGPNSASTKVEGRANGPNEETSRVESKGSAPPEPEVNSTPVPTKPLGNGVDNSGAEKTNAPPTGSAPPAQNCSQQIELDDEGNALVLPKGEWVRTEGTPFYYSDAENLYFHPPSCQFYDPTNEMWYDPEQDEWYRDDDPAE	not soluble
MVIVLVVDSFKDTSNGTSMTAFRFFEALKKRGHVMRVVAPHVDNLGSEEEGYYNLKERYIPLVTEISHKQHILFAKPDEKILRKAFKGADMIHTYLPFLLEKTAVKIAREMQVPYIGSFHLQPEHISYNMKLGWFSWFNMMLFSWFKSSHYRYIHHIHCPSKFIVEELEKYNYGGKKYAISNGFDPMFRFEHPQKSLFDTTPFKIAMVGRYSNEKNQSVLIKAVALSKYKQDIVLLLKGKGPDEKKIKLLAQKLGVKAEFGFVNSNELLEILKTCTLYVHAANVESEAIACLEAISVGIVPVIANSPLSATRQFALDERSLFEPNNAKDLSAKIDWWLENKLERERMQNEYAKSALNYTLENSVIQIEKVYEEAIRDFKNNPHLFKTLSLEHHHHHH	soluble
MSLIKDIRTYKLCYEGINDERDALAIKGLAEHPMEIVATEIETSDGYVGYGESLAYGCSDAVQVTIEKILKPLLLKEDEELIEYLWDKMYKATLRFGRRGIAIAGISGVDTALWDIMGKKAKKPIYKLLGGSKRKVRAYITGGYYSEKKDLEKLRDEEAYYVKMGFKGIKVKIGAKSMEEDIERLKAIREVVGEDVKIAVDANNVYTFEEALEMGRRLEKLGIWFFEEPIQTDYLDLSARLAEELEVPIAGYETAYTRWEFYEIMRKRAVDIVQTDVMWTGGISEMMKIGNMAKVMGYPLIPHYSAGGISLIGNLHVAAALNSPWIEMHLRKNDLRDKIFKESIEIDNGHLVVPDRPGLGYTIRDGVFEEYKCKSEGHHHHHH	soluble
MAHHHHHHMASVDTQWAIKSILQLGHHHLRHGAETTSSSSSCLVRPTSPPFRSASKAVQVTAMPRLMRASCDPSYVILLAKRPSGIAGVSLRPGNRVPWTGLPAAASSLVSAPCSKKTRLLASYLQRRGFATIRPVATDTHSSPSQFRPVQRSMPLLLHTSHLIGWKLNDASPAFPVYAHTLAELQQLRSSDVAALKPQHCLIANEYCEWDNWREVLGEPGWDLFSADEDAVERLLQDGLAISALEEEAGLYPVEVL	not soluble
MMCTKEFDYLNEANQATRFQNVWLPGRYTDCNHMKRKQEEVNGEENSTWRSSSSFQ	not soluble
MGHHHHHHSHKWELCPVTIISWLNLFLQVDALKDAPKVLLPQYSQETFIQIAQLLDLCILAIDSLEFQYRILTAAALCHFTSIEVVKKASGLEWDSISECVDWMVPFVNVVKSTSPVKLKTFKKIPMEDRHNIQTHTNYLAMLEEVNYINTFRKGGQLSPVCNGGIMT	not soluble
MDYTIIDAHAHLWLRQDTVVDGFPIRTLENGRSLFMGEIRQMVPPFMIDGVNSAEVFLSNMDYAQVSAAVITQEFIDGIQNDYLMEVVSRYPDRFFVCGMCEFRKPGYLEQAKELIGKGFKAIKIPAQRLLLKEGRVMLNCPEMMQMFRWMEERGVILSVDLAEGAIQVLEMEEIIQECPRLKIAVGHFGMVTLPDWKEQIKLARHPNVMIESGGITWLFNDEFYPFKGAIKAIREAAELVGMEKLMWGSDYPRTITAITYKMSYDFVVKSPELSEAEKTLFLGGNARKFYGFAELPELPYIKNMSE	not soluble
MSVASLPECVKNFFPTEQLEFSSSITADEKPVLHEVFQKHSCFSQCGEMIDEVSKKHPELGKRLATVLEGNKKRLDGLSPAAVEYAKKLIHMVTTTLCSLTVGKPIDDADAKRLHQEFQSLSSEDQAALRKNNPDIKF	not soluble
